Six molecules from patent US20190233485A1 (LEIDEN UNIVERSITY MEDICAL CENTER, published 2019) can be followed below.

For one test, the target named is T1, HLA-B*0702 (human).
T1 construct: HLA class I molecule on HLA-typed EBV-LCLs from which the polypeptides were eluted; also called HLA-B7
Briefly: polypeptides eluted from HLA of HLA-typed EBV-LCLs (HLA elution database); allele as in Table 1.

Test [1] has as its target T2, Bob1 (B cell Oct binding protein 1, gene POU2AF1) peptide on HLA-B*07:02 (human).
T2 peptide: APAPTAVVL
Briefly: multimer staining.

The target in another test is T3, HLA-A*0201 (human).
T3 construct: HLA class I molecule on HLA-typed EBV-LCLs from which the polypeptides were eluted; also called HLA-A2
Kind of test: polypeptides eluted from HLA of HLA-typed EBV-LCLs (HLA elution database); allele as in Table 1.

The target in test [2] is T4, Bob1 (B cell Oct binding protein 1, gene POU2AF1) peptide on HLA-A*02:01 (human).
T4 peptide: YALNHTLSV
Briefly: multimer staining.

B1: BOB1197 peptide APALPGPQF (peptide)
peptide: APALPGPQF
notes: Bob1-derived peptide from the HLA elution set
For B1, the binding result with HLA-B*0702 was “binds”.

B2: TCR of T cell clone 4G11 (TCR-4G11) (TCR, V domains shown)
Valpha: GENVEQHPSTLSVQEGDSAVIKCTYSDSASNYFPWYKQELGKGPQLIIDIRSNVGEKKDQRIAVTLNKTAKHFSLHITETQPEDSAVYFCAASKGSSNTGKLIFGQGTTLQVKP
Vbeta: DTEVTQTPKHLVMGMTNKKSLKCEQHMGHRAMYWYKQKAKKPPELMFVYSYEKLSINESVPSRFSPECPNSSLLNLHLHALQPEDSALYLCASSHGPASYEQYFGPGTRLTVT
Consider B2, for which the binding result in test [1] is “recognises”.

B3: BOB1245 peptide YALNHTLSV (peptide)
peptide: YALNHTLSV
notes: as for B1
Take B3: the binding result with HLA-A*0201 is “binds”.

B4: TCR of T cell clone 3C10 (TCR, V domains shown)
Valpha: GENVEQHPSTLSVQEGDSAVIKCTYSDSASNYFPWYKQELGKGPQLIIDIRSNVGEKKDQRIAVTLNKTAKHFSLHITETQPEDSAVYFCAASTGGGYSTLTFGKGTMLLVSP
Vbeta: DAGVIQSPRHEVTEMGQEVTLRCKPISGHDYLFWYRQTMMRGLELLIYFNNNVPIDDSGMPEDRFSAKMPNASFSTLKIQPSEPRDSAVYFCASSGQGITLAGANVLTFGAGSRLTVL
B4: the binding result in test [2] is “recognises”.

B5: BOB114 peptide APARPYQGV (peptide)
peptide: APARPYQGV
notes: as for B1
Regarding B5, in the test with HLA-B*0702, the binding result is given as “binds”.

B6: BOB144 peptide APAPTAVVL (peptide)
peptide: APAPTAVVL
notes: as for B1
On to B6, for which the binding result in the test with HLA-B*0702 is “binds”.
